# Patent US7220569
# Tests used:
# [1] = tested on: recombinant Factor X (rFX) from highly expressing CHO-rFX clones
# [2] = tested on: rFactor X from furin deficient CHO-FD11 cells (CHO-FD11-rFX)
# [3] = tested on: Factor X analogue with the FXIa cleavage site Asp-Phe-Thr-Arg/Val (rFX^DFTR/V)
# Chain of Factor X analogue with the FXIa cleavage site Asp-Phe-Thr-Arg/Val (rFX^DFTR/V) (chain, as listed by the source, chain 1 of 2): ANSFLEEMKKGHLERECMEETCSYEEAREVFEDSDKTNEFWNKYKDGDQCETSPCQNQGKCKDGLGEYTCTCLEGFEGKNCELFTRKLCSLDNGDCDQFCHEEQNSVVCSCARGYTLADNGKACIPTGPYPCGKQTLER
# Chain of Factor X analogue with the FXIa cleavage site Asp-Phe-Thr-Arg/Val (rFX^DFTR/V) (chain, as listed by the source, chain 2 of 2): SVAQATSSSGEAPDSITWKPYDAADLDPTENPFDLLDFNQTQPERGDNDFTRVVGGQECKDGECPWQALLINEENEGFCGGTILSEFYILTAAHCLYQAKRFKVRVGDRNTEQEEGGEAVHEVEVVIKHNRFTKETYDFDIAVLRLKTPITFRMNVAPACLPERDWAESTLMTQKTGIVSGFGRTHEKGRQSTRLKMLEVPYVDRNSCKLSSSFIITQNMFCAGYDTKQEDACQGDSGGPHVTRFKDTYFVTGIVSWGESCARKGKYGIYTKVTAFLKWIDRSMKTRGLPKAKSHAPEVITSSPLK
# Chain of recombinant Factor X (rFX) from highly expressing CHO-rFX clones (chain, as listed by the source): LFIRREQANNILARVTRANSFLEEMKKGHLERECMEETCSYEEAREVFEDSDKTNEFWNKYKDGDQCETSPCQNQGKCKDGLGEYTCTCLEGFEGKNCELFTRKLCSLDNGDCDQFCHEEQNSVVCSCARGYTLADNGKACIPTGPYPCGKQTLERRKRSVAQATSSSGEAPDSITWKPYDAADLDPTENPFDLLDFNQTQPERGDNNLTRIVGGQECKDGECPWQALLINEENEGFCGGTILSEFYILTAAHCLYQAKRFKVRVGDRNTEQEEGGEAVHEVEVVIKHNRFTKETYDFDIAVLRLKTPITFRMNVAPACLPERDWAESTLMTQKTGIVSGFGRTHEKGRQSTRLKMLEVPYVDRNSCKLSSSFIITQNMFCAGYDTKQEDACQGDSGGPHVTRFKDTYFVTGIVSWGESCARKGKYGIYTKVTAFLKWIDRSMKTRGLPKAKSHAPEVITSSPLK
# Chain of rFactor X from furin deficient CHO-FD11 cells (CHO-FD11-rFX) (chain, as listed by the source): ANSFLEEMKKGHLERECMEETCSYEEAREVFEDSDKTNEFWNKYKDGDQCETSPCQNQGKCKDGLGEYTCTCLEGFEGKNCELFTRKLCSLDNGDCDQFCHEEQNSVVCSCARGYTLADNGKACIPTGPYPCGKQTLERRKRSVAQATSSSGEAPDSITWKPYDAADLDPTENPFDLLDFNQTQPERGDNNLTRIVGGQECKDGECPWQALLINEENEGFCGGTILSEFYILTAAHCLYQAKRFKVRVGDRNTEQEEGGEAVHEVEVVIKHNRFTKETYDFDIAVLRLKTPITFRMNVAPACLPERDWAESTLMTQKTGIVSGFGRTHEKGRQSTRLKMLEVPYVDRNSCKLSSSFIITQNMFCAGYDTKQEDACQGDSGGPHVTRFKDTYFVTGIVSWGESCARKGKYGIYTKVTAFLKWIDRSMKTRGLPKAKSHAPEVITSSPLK
substance,measurement,setting,value
endogenous furin of CHO cells,processing of rFactor X precursor in furin containing versus furin deficient CHO clones (Western blot),[1],"rFactor X precursor is not processed in the furin deficient cells and only single chain Factor X precursor is present (FIG. 6); in contrast, rFactor X is completely processed by ""normal"" cells at modest expression"
rfurin deltaTM6xHis (CHO-rfurin cell culture supernatant),N-termini of processing products after 12 hours at 37 C with CHO-rfurin supernatant (Edman analysis),[2],"After incubation of rFX from CHO cells (c) and CHO-FD11 cells (e) in the presence of furin, only light and heavy chains having correct N-termini are found"
same,N-termini of processing products after 12 hours at 37 C with CHO-rfurin supernatant (Edman analysis),[1],"After incubation of rFX from CHO cells (c) and CHO-FD11 cells (e) in the presence of furin, only light and heavy chains having correct N-termini are found"
same,"activity (mU), FX Coatest after RVV activation, incubation 0 days",[1],853 mU
same,"activity (mU), FX Coatest after RVV activation, incubation 1 day",[1],1020 mU
same,"activity (mU), FX Coatest after RVV activation, incubation 2 days",[1],1100 mU
same,"activity (mU), FX Coatest after RVV activation, incubation 3 days",[1],1140 mU
same,"activity (mU), FX Coatest after RVV activation, incubation 4 days",[1],1200 mU
same,"functional portion of rFX (%), incubation 0 days",[1],61%
same,"functional portion of rFX (%), incubation 1 day",[1],73%
same,"functional portion of rFX (%), incubation 2 days",[1],79%
same,"functional portion of rFX (%), incubation 3 days",[1],81%
same,"functional portion of rFX (%), incubation 4 days",[1],86%
same,processing of pro-Factor X on tentacle gel immobilized rfurin derivative (Western blot of the effluent),[1],Processing of pro-Factor X to double chain Factor X was detected in the effluent of the column
same,processing of single chain and propeptide containing rFX (Western blot),[1],almost complete processing already after 2 hours of incubation at 37 °C
purified plasma FXIa,activation of rFX^DFTR/V to the 35 kD and 31 kD forms (Western blot),[3],"protein bands of 35 kD and 31 kD rapidly appear after the addition of purified FXIa, but prior to the actual incubation of the cell sulture supernatant (FIG. 11, lane 3)"
